The record followed here is patent US20230272056A1 (Merck Sharp & Dohme, published 2023).

To fix the notation:
B1: VL L94Y (59BIT) (Fab, V domains shown)
VH: EVQLVQSGAEVKKPGASVKVSCKASGYTFTSYWMHWVRQAPGQGLEWMGRIDPQSGGIKYAQKFQGRATLTVDTSTSTAYMELSRLRSDDTAVYYCARWDYGGYFDVWGQGTLVTVSS
VL: DIQMTQSPSSLSASVGDRVTITCRASQDITNYLNWYQQKPGKAVKLLIYYTSRLHSGVPSRFSGSGSGTDYTLTISSLQPEDFATYFCQQGDTYPWTFGQGTKLEIKR
B2: VL S52Y (49BIT) (Fab, V domains shown)
VH: EVQLVQSGAEVKKPGASVKVSCKASGYTFTSYWMHWVRQAPGQGLEWMGRIDPQSGGIKYAQKFQGRATLTVDTSTSTAYMELSRLRSDDTAVYYCARWDYGGYFDVWGQGTLVTVSS
VL: DIQMTQSPSSLSASVGDRVTITCRASQDITNYLNWYQQKPGKAVKLLIYYTYRLHSGVPSRFSGSGSGTDYTLTISSLQPEDFATYFCQQGDTLPWTFGQGTKLEIKR
B3: VL Q90Y (55BIT) (Fab, V domains shown)
VH: EVQLVQSGAEVKKPGASVKVSCKASGYTFTSYWMHWVRQAPGQGLEWMGRIDPQSGGIKYAQKFQGRATLTVDTSTSTAYMELSRLRSDDTAVYYCARWDYGGYFDVWGQGTLVTVSS
VL: DIQMTQSPSSLSASVGDRVTITCRASQDITNYLNWYQQKPGKAVKLLIYYTSRLHSGVPSRFSGSGSGTDYTLTISSLQPEDFATYFCQYGDTLPWTFGQGTKLEIKR
B4: VL Q27Y (41BIT) (Fab, V domains shown)
VH: EVQLVQSGAEVKKPGASVKVSCKASGYTFTSYWMHWVRQAPGQGLEWMGRIDPQSGGIKYAQKFQGRATLTVDTSTSTAYMELSRLRSDDTAVYYCARWDYGGYFDVWGQGTLVTVSS
VL: DIQMTQSPSSLSASVGDRVTITCRASYDITNYLNWYQQKPGKAVKLLIYYTSRLHSGVPSRFSGSGSGTDYTLTISSLQPEDFATYFCQQGDTLPWTFGQGTKLEIKR
B5: VL N34Y (47BIT) (Fab, V domains shown)
VH: EVQLVQSGAEVKKPGASVKVSCKASGYTFTSYWMHWVRQAPGQGLEWMGRIDPQSGGIKYAQKFQGRATLTVDTSTSTAYMELSRLRSDDTAVYYCARWDYGGYFDVWGQGTLVTVSS
VL: DIQMTQSPSSLSASVGDRVTITCRASQDITNYLYWYQQKPGKAVKLLIYYTSRLHSGVPSRFSGSGSGTDYTLTISSLQPEDFATYFCQQGDTLPWTFGQGTKLEIKR
B6: VL R24Y (38BIT) (Fab, V domains shown)
VH: EVQLVQSGAEVKKPGASVKVSCKASGYTFTSYWMHWVRQAPGQGLEWMGRIDPQSGGIKYAQKFQGRATLTVDTSTSTAYMELSRLRSDDTAVYYCARWDYGGYFDVWGQGTLVTVSS
VL: DIQMTQSPSSLSASVGDRVTITCYASQDITNYLNWYQQKPGKAVKLLIYYTSRLHSGVPSRFSGSGSGTDYTLTISSLQPEDFATYFCQQGDTLPWTFGQGTKLEIKR
B7: VL N31Y (45BIT) (Fab, V domains shown)
VH: EVQLVQSGAEVKKPGASVKVSCKASGYTFTSYWMHWVRQAPGQGLEWMGRIDPQSGGIKYAQKFQGRATLTVDTSTSTAYMELSRLRSDDTAVYYCARWDYGGYFDVWGQGTLVTVSS
VL: DIQMTQSPSSLSASVGDRVTITCRASQDITYYLNWYQQKPGKAVKLLIYYTSRLHSGVPSRFSGSGSGTDYTLTISSLQPEDFATYFCQQGDTLPWTFGQGTKLEIKR
B8: VL T30Y (44BIT) (Fab, V domains shown)
VH: EVQLVQSGAEVKKPGASVKVSCKASGYTFTSYWMHWVRQAPGQGLEWMGRIDPQSGGIKYAQKFQGRATLTVDTSTSTAYMELSRLRSDDTAVYYCARWDYGGYFDVWGQGTLVTVSS
VL: DIQMTQSPSSLSASVGDRVTITCRASQDIYNYLNWYQQKPGKAVKLLIYYTSRLHSGVPSRFSGSGSGTDYTLTISSLQPEDFATYFCQQGDTLPWTFGQGTKLEIKR
B9: VL S56Y (53BIT) (Fab, V domains shown)
VH: EVQLVQSGAEVKKPGASVKVSCKASGYTFTSYWMHWVRQAPGQGLEWMGRIDPQSGGIKYAQKFQGRATLTVDTSTSTAYMELSRLRSDDTAVYYCARWDYGGYFDVWGQGTLVTVSS
VL: DIQMTQSPSSLSASVGDRVTITCRASQDITNYLNWYQQKPGKAVKLLIYYTSRLHYGVPSRFSGSGSGTDYTLTISSLQPEDFATYFCQQGDTLPWTFGQGTKLEIKR
B10: VL S26Y (40BIT) (Fab, V domains shown)
VH: EVQLVQSGAEVKKPGASVKVSCKASGYTFTSYWMHWVRQAPGQGLEWMGRIDPQSGGIKYAQKFQGRATLTVDTSTSTAYMELSRLRSDDTAVYYCARWDYGGYFDVWGQGTLVTVSS
VL: DIQMTQSPSSLSASVGDRVTITCRAYQDITNYLNWYQQKPGKAVKLLIYYTSRLHSGVPSRFSGSGSGTDYTLTISSLQPEDFATYFCQQGDTLPWTFGQGTKLEIKR
B11: VL R53Y (50BIT) (Fab, V domains shown)
VH: EVQLVQSGAEVKKPGASVKVSCKASGYTFTSYWMHWVRQAPGQGLEWMGRIDPQSGGIKYAQKFQGRATLTVDTSTSTAYMELSRLRSDDTAVYYCARWDYGGYFDVWGQGTLVTVSS
VL: DIQMTQSPSSLSASVGDRVTITCRASQDITNYLNWYQQKPGKAVKLLIYYTSYLHSGVPSRFSGSGSGTDYTLTISSLQPEDFATYFCQQGDTLPWTFGQGTKLEIKR
B12: VL Q89Y (54BIT) (Fab, V domains shown)
VH: EVQLVQSGAEVKKPGASVKVSCKASGYTFTSYWMHWVRQAPGQGLEWMGRIDPQSGGIKYAQKFQGRATLTVDTSTSTAYMELSRLRSDDTAVYYCARWDYGGYFDVWGQGTLVTVSS
VL: DIQMTQSPSSLSASVGDRVTITCRASQDITNYLNWYQQKPGKAVKLLIYYTSRLHSGVPSRFSGSGSGTDYTLTISSLQPEDFATYFCYQGDTLPWTFGQGTKLEIKR
B13: VL P95Y (60BIT) (Fab, V domains shown)
VH: EVQLVQSGAEVKKPGASVKVSCKASGYTFTSYWMHWVRQAPGQGLEWMGRIDPQSGGIKYAQKFQGRATLTVDTSTSTAYMELSRLRSDDTAVYYCARWDYGGYFDVWGQGTLVTVSS
VL: DIQMTQSPSSLSASVGDRVTITCRASQDITNYLNWYQQKPGKAVKLLIYYTSRLHSGVPSRFSGSGSGTDYTLTISSLQPEDFATYFCQQGDTLYWTFGQGTKLEIKR

T1 sequence (chain, as listed by the source limits assumed): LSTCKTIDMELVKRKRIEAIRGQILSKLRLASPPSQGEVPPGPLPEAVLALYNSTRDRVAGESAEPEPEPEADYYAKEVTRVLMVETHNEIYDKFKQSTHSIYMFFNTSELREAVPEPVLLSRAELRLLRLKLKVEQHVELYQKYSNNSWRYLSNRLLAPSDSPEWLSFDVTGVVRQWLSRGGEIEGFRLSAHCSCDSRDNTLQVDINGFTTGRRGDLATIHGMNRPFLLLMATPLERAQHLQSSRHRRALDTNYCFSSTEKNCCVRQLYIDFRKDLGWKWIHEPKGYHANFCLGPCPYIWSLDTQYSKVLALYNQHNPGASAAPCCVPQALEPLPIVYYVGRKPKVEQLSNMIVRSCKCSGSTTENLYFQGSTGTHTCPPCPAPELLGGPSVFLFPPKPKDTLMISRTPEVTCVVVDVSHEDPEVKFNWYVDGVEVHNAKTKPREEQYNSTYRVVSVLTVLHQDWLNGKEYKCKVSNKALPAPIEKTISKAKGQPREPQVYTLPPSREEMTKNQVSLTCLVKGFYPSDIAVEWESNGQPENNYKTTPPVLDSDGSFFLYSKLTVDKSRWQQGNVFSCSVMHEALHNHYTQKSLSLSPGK

The assay concerns the target T1, human LAP-TGFB1 Fc fusion (human).
T1 construct: also called human LAP-TGFβ1-Fc; human LAP-TGFβ-Fc isoform 1
Kind of assay: BLI off-rate screen. The method, then: The Fab mutants including a positive control, 20E6 Fab, and a negative control Fab (Molecular Innovations, catalog HU-FAB-4510) were diluted to 200 nM in assay buffer and loaded to FAB2G sensors for 180 seconds followed by a one-hour incubation at room temperature in assay buffer to equilibrate the tips. The Fab loaded sensors were assessed for binding with 100 nM human LAP-TGFβ for 180 seconds followed by a 180 second dissociation phase in assay buffer on a ForteBio HTX (software version 9.0.0.66). Non-specific binding to the negative control Fab was subtracted and the binding sensorgrams were aligned to the start of the association phase on the X and Y axis. The Fab binding was fit with the 1:1 binding model, dissociation phase only, with local fitting using ForteBio Data Analysis 9.0 software.
Twenty-three variants containing a single tyrosine substitution in the light chain CDRs (at one of amino acid positions 24-31, 33, 34, 51-56, and 89-95 according to Kabat numbering scheme) and 21 similar heavy chain CDR variants (at amino acids positions 28-31, 33-35, 50-58 including 52a, 95, 96, 98, and 99 according to Kabat numbering scheme) were generated according to FIG. 1 and listed in Table 6 and their interactions with human LAP-TGFb1 were analyzed by ForteBio interferometry. […] In those sequences the VL is correct, even though these sequences are from the heavy chain. Thus, the VL_X ##Y refers to the position of the tyrosine mutation within the antibody, regardless of whether the sequence is a heavy or light chain.
For B1, the Binding response was found to be 0.308 nm; the Fold change turned out to be 0.7 fold; the koff – broadly, the first-order rate constant of dissociation – came to 0.0571 s⁻¹.
On to B2, for which the Binding response was found to be 0.431 nm, the Fold change amounted to 1 fold and the koff was determined as 0.0409 s⁻¹.
In the case of B3, the Binding response was determined as 0.04 nm and the binding result is reported as “no binding (tested: 100 nM antigen)”.
B4: the Binding response is 0.427 nm, the Fold change amounted to 1.8 fold and the koff was 0.0229 s⁻¹.
In the same order, the values of B5 are 0.221 nm, 1 fold and 0.0436 s⁻¹.
On to B6, for which the Binding response was 0.446 nm, the Fold change worked out at 1.6 fold and the koff was determined as 0.027 s⁻¹.
For the molecule B7, the Binding response was 0.344 nm, the Fold change was determined as 1.8 fold and the koff came out at 0.0241 s⁻¹.
B8 showed a Binding response of 0.472 nm, a Fold change of 2.6 fold and a dissociation rate constant (koff) of 0.0162 s⁻¹.
In turn, B9 returned a Binding response of 0.344 nm, a Fold change of 1.3 fold and a koff of 0.0324 s⁻¹.
In the same order, the values of B10 are 0.371 nm, 1.5 fold and 0.0283 s⁻¹.
Turning to B11, the Binding response amounted to 0.365 nm, the Fold change came out at 1.6 fold and the off-rate constant (koff) came out at 0.027 s⁻¹.
Regarding B12, the Binding response was 0.035 nm and the binding result was “no binding (tested: 100 nM antigen)”.
In the same order, the values of B13 are 0.015 nm and “no binding (tested: 100 nM antigen)”.
